Experimental data taken from patent US20230272048A1 (UNIVERSITY OF MELBOURNE, published 2023).

T1: SS-B (human, UniProt P05455 1-408)
T1 sequence (looked up): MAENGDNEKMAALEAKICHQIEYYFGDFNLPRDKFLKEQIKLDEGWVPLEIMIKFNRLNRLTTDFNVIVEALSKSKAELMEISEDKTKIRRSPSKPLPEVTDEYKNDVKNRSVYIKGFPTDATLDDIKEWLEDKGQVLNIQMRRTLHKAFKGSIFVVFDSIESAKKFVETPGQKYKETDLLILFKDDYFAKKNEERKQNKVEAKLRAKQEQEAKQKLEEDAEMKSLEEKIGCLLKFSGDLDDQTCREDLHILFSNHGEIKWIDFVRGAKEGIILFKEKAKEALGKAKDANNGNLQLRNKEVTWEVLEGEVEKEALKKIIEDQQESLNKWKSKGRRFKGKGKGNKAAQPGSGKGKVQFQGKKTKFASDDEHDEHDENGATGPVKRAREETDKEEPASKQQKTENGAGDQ

T2: Jo-1 (human, UniProt P12081 1-509)
T2 sequence (looked up): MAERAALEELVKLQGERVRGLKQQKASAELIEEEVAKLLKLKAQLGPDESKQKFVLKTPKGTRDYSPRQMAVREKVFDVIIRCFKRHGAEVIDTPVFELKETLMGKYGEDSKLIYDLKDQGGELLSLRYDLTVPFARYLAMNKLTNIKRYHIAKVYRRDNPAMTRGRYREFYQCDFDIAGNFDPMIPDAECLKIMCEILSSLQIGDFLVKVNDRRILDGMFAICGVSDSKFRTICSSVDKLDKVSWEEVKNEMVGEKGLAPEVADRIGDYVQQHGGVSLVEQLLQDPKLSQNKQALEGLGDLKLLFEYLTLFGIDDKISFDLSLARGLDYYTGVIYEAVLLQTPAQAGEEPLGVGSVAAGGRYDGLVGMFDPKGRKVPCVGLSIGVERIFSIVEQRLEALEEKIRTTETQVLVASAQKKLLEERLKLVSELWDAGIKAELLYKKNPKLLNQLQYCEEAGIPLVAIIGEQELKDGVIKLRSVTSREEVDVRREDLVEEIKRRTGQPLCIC

T3: Scl-70 (human, UniProt P11387 1-765)
T3 sequence (looked up): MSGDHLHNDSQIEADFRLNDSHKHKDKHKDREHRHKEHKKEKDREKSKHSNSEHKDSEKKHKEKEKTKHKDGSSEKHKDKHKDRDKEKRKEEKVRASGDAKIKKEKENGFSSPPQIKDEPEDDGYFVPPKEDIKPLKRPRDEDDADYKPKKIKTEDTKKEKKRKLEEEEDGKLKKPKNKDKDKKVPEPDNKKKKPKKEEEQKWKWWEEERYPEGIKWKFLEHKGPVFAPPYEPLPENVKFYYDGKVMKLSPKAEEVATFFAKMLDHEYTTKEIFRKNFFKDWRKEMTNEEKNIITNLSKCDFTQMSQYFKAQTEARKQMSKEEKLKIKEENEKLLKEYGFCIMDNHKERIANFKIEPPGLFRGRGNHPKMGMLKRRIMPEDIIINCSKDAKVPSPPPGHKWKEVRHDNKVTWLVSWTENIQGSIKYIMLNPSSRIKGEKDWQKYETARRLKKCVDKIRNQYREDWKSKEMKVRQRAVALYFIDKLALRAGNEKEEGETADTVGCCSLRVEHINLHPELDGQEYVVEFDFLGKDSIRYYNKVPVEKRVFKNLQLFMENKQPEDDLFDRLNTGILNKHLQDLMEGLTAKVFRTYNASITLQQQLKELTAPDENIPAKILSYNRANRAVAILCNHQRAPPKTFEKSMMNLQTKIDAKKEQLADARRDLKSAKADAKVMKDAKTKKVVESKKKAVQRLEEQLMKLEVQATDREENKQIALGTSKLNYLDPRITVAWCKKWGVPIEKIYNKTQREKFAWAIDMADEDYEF

T4: CenpB (human, UniProt P07199 1-599)
T4 sequence (looked up): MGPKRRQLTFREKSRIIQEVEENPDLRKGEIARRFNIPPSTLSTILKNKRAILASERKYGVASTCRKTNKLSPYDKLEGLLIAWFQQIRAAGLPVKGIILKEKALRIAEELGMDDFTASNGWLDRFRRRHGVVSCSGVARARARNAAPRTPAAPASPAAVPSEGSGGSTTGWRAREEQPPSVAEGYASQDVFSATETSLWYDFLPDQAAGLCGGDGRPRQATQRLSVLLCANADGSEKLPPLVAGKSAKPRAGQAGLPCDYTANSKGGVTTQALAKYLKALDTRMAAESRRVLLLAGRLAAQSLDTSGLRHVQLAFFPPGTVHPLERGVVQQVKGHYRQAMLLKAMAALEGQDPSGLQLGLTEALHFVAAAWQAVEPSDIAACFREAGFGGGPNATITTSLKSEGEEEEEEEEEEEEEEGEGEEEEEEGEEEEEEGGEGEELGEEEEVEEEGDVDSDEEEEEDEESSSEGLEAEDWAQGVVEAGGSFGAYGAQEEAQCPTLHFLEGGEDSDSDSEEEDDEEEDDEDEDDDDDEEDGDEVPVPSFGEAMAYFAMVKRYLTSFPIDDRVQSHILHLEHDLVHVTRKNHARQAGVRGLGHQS

B1: MEL-1872 (antibody)
VH: KVQLRESGPSLVKPSQTLSLTCTASGFSLSDKAVGWVRQAPGQPLEWLGTIDTTGNAVYNPGLKSRLSITKDNSKSQVSLSLSSVTTEDSATYHCSTVHQKTRRSCPSDYSFICDCEGTGSHCCRASNCPYYCNYGRDRMCTGRSNIHEWHVDAWGQGLLVTVSS
VL: QAVLTQPSSVSGSLGQRVSTTCSGSSSNVGNGYVSWYQLIPGSAPRTLIYGDTSRASGVPDRFSGSRSGNTVTLTISSLQAEDEADYFCASAEDGSSNAVFGRGTTLTV
notes: also called H 1872; BrNAb MEL-1872
B2: MEL-1842 (antibody)
VH: KVQLQESGPSLVKPSQTLSLTCTASGFSLSDKAVGWVRQAPGQALEWLGSIDTGGNADYNPGLKSRLSITKDNAKSQVSLSVSSVTTEGSATYYCSTVHQKTLRSCPSDYPYICDCEDTGSHCCRATNCPYYCNHGRDRMCTGRTYTYEWHVEAWGQGLLVTVSS
VL: B1 VL
notes: also called H 1842; BrNAb MEL-1842
B3: MEL-2129 (antibody)
VH: KVQLRESGPSLVKPSQTLSLTCTASGFSLSDKAVGWVRQAPGKALEWLGSIDTGGNAGYNPGLKSRLSITKGNSKSQVSLSVSSVTTEDSATYYCSTVHQKTRRSCPVDYYYSCDCEGSGSHCCSASNCPYYCKYGRDRVCTDKHTYSYEWYVDAWGQGLLVTVSS
VL: B1 VL
notes: also called BrNAb MEL-2129

What was measured:
S364A = biological target: T5, S364A (HIV-1); assay: capture ELISA on Env of lysed AD8 pseudovirus, % of WT
T5 construct: full-length Env of lysed pseudovirus; HXB-2 numbering

SS-B = biological target: T1, SS-B; assay: single autoantigen ELISA (AESKULISA ANA-8Pro), FIG. 9A; antibody printed as '1879'
Jo-1 = biological target: T2, Jo-1; assay: as above
Scl-70 [1] = biological target: T3, Scl-70; assay: as above
CenpB [2] = biological target: T4, CenpB; assay: as above
[3] = biological target: AD8 WT Env (gp160, from lysed pseudovirions / on pseudovirus) (HIV-1 AD8, clade B); assay: cell-based or functional assay
monomeric AD8 gp120 = biological target: T6, monomeric AD8 gp120 (HIV-1 AD8, clade B); assay: direct ELISA, plates coated with 1 µg/ml Env (FIG. 6C)
T6 construct: also called monomeric gp120; monomeric gp120 form of Env

Scl-70 [4] = biological target: T3, Scl-70; assay: single autoantigen ELISA (AESKULISA ANA-8Pro), FIG. 9A
CenpB [5] = biological target: T4, CenpB; assay: as above

Binder | Env binding (%) at antibody EC50 (S364A) [%] | binding result (SS-B) | binding result (Jo-1) | binding result (Scl-70 [1]) | binding result (CenpB [2]) | IC50 (read off the curve); axis Neutralisation (%), panel AD8 [3] [ng/mL] | binding result (monomeric AD8 gp120) | binding result (Scl-70 [4]) | binding result (CenpB [5])
B1 | 75 | no binding (tested: 100 µg/ml) | no binding (tested: 100 µg/ml) | no binding (tested: 100 µg/ml) | no binding (tested: 100 µg/ml) | ~7 | – | – | –
B2 | – | – | – | – | – | – | binds | no binding (tested: 100 µg/ml) | no binding (tested: 100 µg/ml)
B3 | 42 | – | – | – | – | – | – | no binding (tested: 100 µg/ml) | no binding (tested: 100 µg/ml)
